Assay results reported in PMC8248744, “High-resolution genetic mapping reveals cis-regulatory and copy number variation in loci associated with cytochrome P450-mediated detoxification in a generalist arthropod pest” (PLoS Genetics, 2021).

Substrate: COC(c1ccc(NC(=O)c2c(C)nn(C)c2C)cc1CC(C)C)(C(F)(F)F)C(F)(F)F
Assay: HPLC-UV substrate depletion, recombinant membranes
Type: biochemical, Tetranychus urticae
Conditions: NADPH-regenerating system, 0.2 M Tris-HCl pH 7.4, 0.25 mM MgCl2, 2.5% acetonitrile, 30°C, N-demethylation at pyrazole, co-expressed with TuCPR

B1: CYP392A16 (Tetranychus urticae) (protein)
chain: MIEVIHSGSIPDGHFTVSTIMFLISNLLSSQPLVNSLIGLALFWLVKYLFNTIQRIRSLPAGPWGLPIVGYLPFIKDDIYLVFDQLSKKYGPVYSLKLGSFDVVLVCDWPHMKDAVANDALLARQHEVFFPGVVEGRSFAEMSGDPWREHRRLSLHILRDVGLGKSTIETLVKEEVDQFLSALENNGKPADFEKCISRSVTNNVSILLFGHKYERDDPTAIAISSANTEVGRSFSFAGVVAFLPWLAELVFKFELFNVTRLKKCFQIVDTHIQDEIVKHQEKNSQEVVDYIDGYLVEKKNREKQNKVDDNFTIEILRRNAGAFYGAGTETVSSTMEWIMVYLVKYPEYQDKIRSEIADVIGFERKPDYVDRNRMPFTMAFIHEIHRIGSVVANNLLRRAASDTKIGNYNIPKDTLVILNFWSVNRDPKLWPNPDEFDPTRFLTEDGSKVVKPPHLIPFSAGKRNCPGESLANVELFLYLVCMLQKYHVKVKPGTKISTEAIFGLSRRPSQLPTFIFEKISNSN
notes: E. coli BL21STAR membrane fraction; with NADPH--cytochrome P450 reductase
  Km: 17.79 (± 3.29 SE) μM
